Among the data in patent publication US20070286858A1 are Kd values, retold here.

The experiment concerns the target murine RAGE-Fc (mouse) (UniProt Q62151). Description: method not given.

murine RAGE-Fc (mouse), sequence (Q62151 other isoform, or with tags, fused parts or gaps, form in doubt): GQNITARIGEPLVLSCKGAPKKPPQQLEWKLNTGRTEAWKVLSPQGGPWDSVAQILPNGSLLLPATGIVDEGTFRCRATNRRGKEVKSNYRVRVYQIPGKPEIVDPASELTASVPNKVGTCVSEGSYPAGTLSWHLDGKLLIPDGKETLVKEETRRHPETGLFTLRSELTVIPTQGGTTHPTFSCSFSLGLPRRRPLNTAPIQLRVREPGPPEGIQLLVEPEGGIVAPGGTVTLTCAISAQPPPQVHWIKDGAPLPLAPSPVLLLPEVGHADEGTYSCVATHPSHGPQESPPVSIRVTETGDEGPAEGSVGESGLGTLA

B1: XT-M4 (antibody, rat IgG2b, V domains shown)
VH: EVQLVESGGGLVQPGRSLKLSCVVSGFTFNNYWMTWIRQTPGKGLEWVASINNSGDNTYYPDSVKDRFTISRDNAKSTLYLQMNSLRSEDTATYYCTRGGDITTGFDYWGQGVMVTVSS
VL: DIQMTQSPSSMSVSLGDTITITCRASQDVGIYVNWFQQKPGKSPRRMIYRATNLADGVPSRFSGSRSGSIYSLTISSLESEDVADYHCLEFDEHPLTFGSGTKVEIK
As a reminder, the Kd is the free concentration of one partner at which half of the binding sites on the other are occupied at equilibrium, for simple one-to-one binding. A low value points to a tighter complex. B1 yielded an equilibrium dissociation constant (Kd) of 0.3 nM.
